# Results as given in article PMC5941314 (2018).
# T1: UBE2N (Homo sapiens (Human), UniProt P61088)
# T1 chain: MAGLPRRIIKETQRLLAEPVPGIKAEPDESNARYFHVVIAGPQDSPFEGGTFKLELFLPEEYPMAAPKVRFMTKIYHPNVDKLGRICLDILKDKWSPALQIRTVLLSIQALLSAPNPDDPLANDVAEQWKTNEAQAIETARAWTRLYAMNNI
# Experiments:
# Assay in all cases: ITC 25 C, TWO LABS merged (one a row), salt differs
# UBE2D2 = UBE2D2 (Homo sapiens (Human), UniProt P62837)
# UBE2N = biological target: T1, UBE2N
# UBE2L3 = UBE2L3 (Homo sapiens (Human), UniProt P68036)
# Chain of UBE2L3 (P68036 whole entry): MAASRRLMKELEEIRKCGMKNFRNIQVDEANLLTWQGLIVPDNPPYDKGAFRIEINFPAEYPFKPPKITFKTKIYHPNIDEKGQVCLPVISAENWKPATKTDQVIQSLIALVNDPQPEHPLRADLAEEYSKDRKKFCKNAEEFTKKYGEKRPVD
# Chain of UBE2D2 (P62837 whole entry, looked up): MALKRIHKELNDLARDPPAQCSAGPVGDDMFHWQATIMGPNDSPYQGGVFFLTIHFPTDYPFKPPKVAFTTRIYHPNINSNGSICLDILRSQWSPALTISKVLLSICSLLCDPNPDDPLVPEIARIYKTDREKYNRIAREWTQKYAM
binder,measurement,setting,value
Arkadia (protein) KQDGEEGTEEDTEEKCTICLSILEEGEDVRRLPCMHLFHQVCVDQWLITNKKCPICRVDIEAQLPSES,Kd,UBE2D2,32 µM
same,Kd,UBE2N,264 µM
same,Kd,UBE2L3,27.3 µM
